Measured values published in publication PMC12112590.

Target: S. cerevisiae RNA Polymerase II (Pol II) (S. cerevisiae) (UniProt P04050)

Binder	transcription stimulation with calf thymus DNA and yeast Pol II ([α-32P]CTP incorporation), against wild-type hNDF
full-length hNDF mutant MT1 (natural protein) MAAVSLRLGDLVWGKLGRYPPWPGKIVNPPKDLKKPRGKKCFFVKFFGTEDHAWIKVEQLKPYHAHKEEMIKINKGKRFQQAVDAVEEFLRRAKGKDQTSSHNSSDDKNRRNSSEERSRPNSGDEKRKLSLSEGKVKKNMAAAAARVSSGSSERGSKSPLKRAQEQSPRKRGRPPKDEKDLTIPESSTVKGMMAGPMAAFKWQPTASEPVKDADPHFHHFLLSQTEKPAVCYQAITKKLKICEEETGSTSIQAADSTAVNGSITPTDKKIGFLGLGLMGSGIVSNLLKMGHTVTVWNRTAEKCDLFIQEGARLGRTPAEVVSTCDITFACVSDPKAAKDLVLGPSGVLQGIRPGKCYVDMSTVDADTVTELAQVIVSRGGRFLEAPVSGNQQLSNDGMLVILAAGDRGLYEDCSSCFQAMGKTSFFLGEVGNAAKMMLIVNMVQGSFMATIAEGLTLAQVTGQSQQTLLDILNQGQLASIFLDQKCQNILQGNFKPDFYLKYIQKDLRLAIALGDAVNHPTPMAAAANEVYKRAKALDQSDNDMSAVYRAYIH	50 % reduction
full-length hNDF mutant MT2 (residues 146–150) (natural protein) MAAVSLRLGDLVWGKLGRYPPWPGKIVNPPKDLKKPRGKKCFFVKFFGTEDHAWIKVEQLKPYHAHKEEMIKINKGKRFQQAVDAVEEFLRRAKGKDQTSSHNSSDDKNRRNSSEERSRPNSGDEKRKLSLSEGKVKKNMGEGKKAAAAASSERGSKSPLKRAQEQSPRKRGRPPKDEKDLTIPESSTVKGMMAGPMAAFKWQPTASEPVKDADPHFHHFLLSQTEKPAVCYQAITKKLKICEEETGSTSIQAADSTAVNGSITPTDKKIGFLGLGLMGSGIVSNLLKMGHTVTVWNRTAEKCDLFIQEGARLGRTPAEVVSTCDITFACVSDPKAAKDLVLGPSGVLQGIRPGKCYVDMSTVDADTVTELAQVIVSRGGRFLEAPVSGNQQLSNDGMLVILAAGDRGLYEDCSSCFQAMGKTSFFLGEVGNAAKMMLIVNMVQGSFMATIAEGLTLAQVTGQSQQTLLDILNQGQLASIFLDQKCQNILQGNFKPDFYLKYIQKDLRLAIALGDAVNHPTPMAAAANEVYKRAKALDQSDNDMSAVYRAYIH	50 % reduction
full-length hNDF mutant MT3 (natural protein) MAAVSLRLGDLVWGKLGRYPPWPGKIVNPPKDLKKPRGKKCFFVKFFGTEDHAWIKVEQLKPYHAHKEEMIKINKGKRFQQAVDAVEEFLRRAKGKDQTSSHNSSDDKNRRNSSEERSRPNSGDEKRKLSLSEGKVKKNMGEGKKRVSSGAAAAASKSPLKRAQEQSPRKRGRPPKDEKDLTIPESSTVKGMMAGPMAAFKWQPTASEPVKDADPHFHHFLLSQTEKPAVCYQAITKKLKICEEETGSTSIQAADSTAVNGSITPTDKKIGFLGLGLMGSGIVSNLLKMGHTVTVWNRTAEKCDLFIQEGARLGRTPAEVVSTCDITFACVSDPKAAKDLVLGPSGVLQGIRPGKCYVDMSTVDADTVTELAQVIVSRGGRFLEAPVSGNQQLSNDGMLVILAAGDRGLYEDCSSCFQAMGKTSFFLGEVGNAAKMMLIVNMVQGSFMATIAEGLTLAQVTGQSQQTLLDILNQGQLASIFLDQKCQNILQGNFKPDFYLKYIQKDLRLAIALGDAVNHPTPMAAAANEVYKRAKALDQSDNDMSAVYRAYIH	50 % reduction
full-length hNDF mutant MT4 (residues 156–160) (natural protein) MAAVSLRLGDLVWGKLGRYPPWPGKIVNPPKDLKKPRGKKCFFVKFFGTEDHAWIKVEQLKPYHAHKEEMIKINKGKRFQQAVDAVEEFLRRAKGKDQTSSHNSSDDKNRRNSSEERSRPNSGDEKRKLSLSEGKVKKNMGEGKKRVSSGSSERGAAAAAKRAQEQSPRKRGRPPKDEKDLTIPESSTVKGMMAGPMAAFKWQPTASEPVKDADPHFHHFLLSQTEKPAVCYQAITKKLKICEEETGSTSIQAADSTAVNGSITPTDKKIGFLGLGLMGSGIVSNLLKMGHTVTVWNRTAEKCDLFIQEGARLGRTPAEVVSTCDITFACVSDPKAAKDLVLGPSGVLQGIRPGKCYVDMSTVDADTVTELAQVIVSRGGRFLEAPVSGNQQLSNDGMLVILAAGDRGLYEDCSSCFQAMGKTSFFLGEVGNAAKMMLIVNMVQGSFMATIAEGLTLAQVTGQSQQTLLDILNQGQLASIFLDQKCQNILQGNFKPDFYLKYIQKDLRLAIALGDAVNHPTPMAAAANEVYKRAKALDQSDNDMSAVYRAYIH	50 % reduction
